The text below walks through data of the supplement of paper PMC10567573.

The chains are these.
B1: HDAC6 (parent)
chain: YVHHQALLDVKNIAHQNKFGEDMP
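Also: lentivirally expressed fusions sorted by FACS into six bins by GFP to DsRed ratio, PSI derived from sequencing read proportions per bin multiplied by bin number.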

In the data set the parent is B1. Description: protein stability index of a GFP-peptide fusion (GPS, HEK-293T) (PSI 1-6); higher = more stable. The settings on record: c terminus: a fixed tail appended.
On to YVHHQALLDVKNIAHQNKFEEDMP [G20E], for which the protein stability index was determined as 2.26. In the case of YVHHQALLDVKNIAHQNKFTEDMP [G20T] it was 1.91; in that of YVHHQALLDVKNIAHQNKFIEDMP [G20I], 1.88. On to YVHHQALLDVKNIAHQNKFYEDMP [G20Y], for which the protein stability index turned out to be 2.58. The figure for YVHHQALLDVKNIAHQNKFWEDMP [G20W] is 2.41; for YVHHQALLDVKNIAHQNKFMEDMP [G20M] it is 2.35; for YVHHQALLDVKNIAHQNKFQEDMP [G20Q] it is 2.03. For the variant YVHHQALLDVKNIAHQNKFKEDMP [G20K], the protein stability index is 2.14. As to YVHHQALLDVKNIAHQNKFREDMP [G20R], the protein stability index came out at 1.56. In the case of YVHHQALLDVKNIAHQNKFPEDMP [G20P], the protein stability index is 1.96. With YVHHQALLDVKNIAHQNKFAEDMP [G20A], the protein stability index is 1.99. Consider YVHHQALLDVKNIAHQNKFFEDMP [G20F], for which the protein stability index was found to be 3.09.

YVHHQALLDVKNIAHQNKFNEDMP [G20N]: the protein stability index is 1.96. The figure for YVHHQALLDVKNIAHQNKFSEDMP [G20S] is 1.82. The figure for YVHHQALLDVKNIAHQNKFCEDMP [G20C] is 1.83; for YVHHQALLDVKNIAHQNKFLEDMP [G20L] it is 2.19; for YVHHQALLDVKNIAHQNKFDEDMP [G20D] it is 2.28.

For the variant YVHHQALLDVKNIAHQNKFHEDMP [G20H], the protein stability index amounted to 2.19.

Take YVHHQALLDVKNIAHQNKFVEDMP [G20V]: the protein stability index came out at 2.13. In the case of YVHHQALLDVKNIAHQNKFGEYMP [D22Y] it was 1.74. YVHHQALLDVKNIAHQNKFGEQMP [D22Q]: the protein stability index is 1.76. For the variant YVHHQALLDVKNIAHQNKFGEWMP [D22W], the protein stability index was found to be 2.14.

For the variant YVHHQALLDVKNIAHQNKFGEVMP [D22V], the protein stability index is 1.5. Take YVHHQALLDVKNIAHQNKFGEPMP [D22P]: the protein stability index was 2.21. The figure for YVHHQALLDVKNIAHQNKFGEGMP [D22G] is 1.64; for YVHHQALLDVKNIAHQNKFGESMP [D22S] it is 2.48; for YVHHQALLDVKNIAHQNKFGERMP [D22R] it is 1.73. In the case of YVHHQALLDVKNIAHQNKFGEFMP [D22F], the protein stability index is 1.57.

As for YVHHQALLDVKNIAHQNKFGEMMP [D22M], the protein stability index came out at 1.68. The figure for YVHHQALLDVKNIAHQNKFGEAMP [D22A] is 1.67. Take YVHHQALLDVKNIAHQNKFGEKMP [D22K]: the protein stability index is 2.09. For the variant YVHHQALLDVKNIAHQNKFGELMP [D22L], the protein stability index was 2.17.

On to YVHHQALLDVKNIAHQNKFGECMP [D22C], for which the protein stability index worked out at 2.63.

On to YVHHQALLDVKNIAHQNKFGENMP [D22N], for which the protein stability index was found to be 2.31. In the case of YVHHQALLDVKNIAHQNKFGETMP [D22T] it was 1.86; in that of YVHHQALLDVKNIAHQNKFGEHMP [D22H], 2.4; in that of YVHHQALLDVKNIAHQNKFGEEMP [D22E], 1.69. In the case of YVHHQALLDVKNIAHQNKFGEIMP [D22I], the protein stability index worked out at 2.21. The figure for YVHHQALLDVKNIAHQNKFGEDEP [M23E] is 2.06; for YVHHQALLDVKNIAHQNKFGEDDP [M23D] it is 2.17. On to YVHHQALLDVKNIAHQNKFGEDAP [M23A], for which the protein stability index came to 1.94. Regarding YVHHQALLDVKNIAHQNKFGEDFP [M23F], the protein stability index was determined as 2.23. In the case of YVHHQALLDVKNIAHQNKFGEDCP [M23C] it was 1.95.

On to YVHHQALLDVKNIAHQNQFGEDMP [K18Q], for which the protein stability index came to 1.95.

In the case of YVHHQALLDVKNIAHQNPFGEDMP [K18P], the protein stability index stood at 2.35. In the case of YVHHQALLDVKNIAHQNWFGEDMP [K18W], the protein stability index was determined as 1.9. The figure for YVHHQALLDVKNIAHQNMFGEDMP [K18M] is 1.94; for YVHHQALLDVKNIAHQNRFGEDMP [K18R] it is 2.88.

In the case of YVHHQALLDVKNIAHQNIFGEDMP [K18I], the protein stability index turned out to be 2.15. In the case of YVHHQALLDVKNIAHQNLFGEDMP [K18L] it was 1.73; in that of YVHHQALLDVKNIAHQNNFGEDMP [K18N], 2.26; in that of YVHHQALLDVKNIAHQNSFGEDMP [K18S], 1.49.

With YVHHQALLDVKNIAHQNTFGEDMP [K18T], the protein stability index worked out at 2.43. The figure for YVHHQALLDVKNIAHQNHFGEDMP [K18H] is 1.78; for YVHHQALLDVKNIAHQNYFGEDMP [K18Y] it is 2.2. Turning to YVHHQALLDVKNIAHQNVFGEDMP [K18V], the protein stability index turned out to be 1.74. Turning to YVHHQALLDVKNIAHQNKAGEDMP [F19A], the protein stability index came out at 2.51. The figure for YVHHQALLDVKNIAHQNKYGEDMP [F19Y] is 1.96; for YVHHQALLDVKNIAHQNKLGEDMP [F19L] it is 2.09; for YVHHQALLDVKNIAHQNKGGEDMP [F19G] it is 2.43. As for YVHHQALLDVKNIAHQNKCGEDMP [F19C], the protein stability index is 1.78. The figure for YVHHQALLDVKNIAHQNKVGEDMP [F19V] is 1.83; for YVHHQALLDVKNIAHQNKKGEDMP [F19K] it is 1.91.

With YVHHQALLDVKNIAHQNKMGEDMP [F19M], the protein stability index was 2.34. In the case of YVHHQALLDVKNIAHQNKEGEDMP [F19E], the protein stability index was 2.45. In the case of YVHHQALLDVKNIAHQNKNGEDMP [F19N] it was 2.05; in that of YVHHQALLDVKNIAHQNKTGEDMP [F19T], 2.19; in that of YVHHQALLDVKNIAHQNKHGEDMP [F19H], 2.53. The figure for YVHHQALLDVKNIAHQNKRGEDMP [F19R] is 1.88. Take YVHHQALLDVKNIAHQNKQGEDMP [F19Q]: the protein stability index was determined as 2.35. In the case of YVHHQALLDVKNIAHQNKSGEDMP [F19S] it was 2.39. The figure for YVHHQALLDVKNIAHQNKDGEDMP [F19D] is 2.48; for YVHHQALLDVKNIAHQNKWGEDMP [F19W] it is 1.73. Turning to YVHHQALLDVKNIAHQNKPGEDMP [F19P], the protein stability index worked out at 2.83. In the case of YVHHQALLDVKNIAHQNKIGEDMP [F19I] it was 1.76; in that of YVHHQALLDVKNIAHQNKFGVDMP [E21V], 1.61. In the case of YVHHQALLDVKNIAHQNKFGHDMP [E21H], the protein stability index was 1.46. On to YVHHQALLDVKNIAHQNKFGGDMP [E21G], for which the protein stability index turned out to be 2.14. With YVHHQALLDVKNIAHQNKFGRDMP [E21R], the protein stability index was found to be 1.47. In the case of YVHHQALLDVKNIAHQNKFGCDMP [E21C] it was 2.23; in that of YVHHQALLDVKNIAHQNKFGPDMP [E21P], 1.4; in that of YVHHQALLDVKNIAHQNKFGSDMP [E21S], 2.22. As to YVHHQALLDVKNIAHQNKFGNDMP [E21N], the protein stability index turned out to be 2. In the case of YVHHQALLDVKNIAHQNKFGKDMP [E21K] it was 1.57; in that of YVHHQALLDVKNIAHQNKFGDDMP [E21D], 1.97; in that of YVHHQALLDVKNIAHQNKFGLDMP [E21L], 1.72. Regarding YVHHQALLDVKNIAHQNKFGADMP [E21A], the protein stability index stood at 2.01.

For the variant YVHHQALLDVKNIAHQNKFGMDMP [E21M], the protein stability index was 1.71. The figure for YVHHQALLDVKNIAHQNKFGTDMP [E21T] is 2.01; for YVHHQALLDVKNIAHQNKFGQDMP [E21Q] it is 2.11; for YVHHQALLDVKNIAHQNKFGYDMP [E21Y] it is 2.15. YVHHQALLDVKNIAHQNKFGFDMP [E21F]: the protein stability index came out at 2.54. Regarding YVHHQALLDVKNIAHQNKFGWDMP [E21W], the protein stability index was 2.02.

For YVHHQALLDVKNIAHQNKFGIDMP [E21I], the protein stability index was 1.57.
